Results on 1 molecule are retold here after PMC8209278 (iScience, 2021).

Assay [1] has as its target Purified recombinant viral PB2 protein (influenza virus A/Puerto Rico/8/34 …, UniProt P03428 1-759). The assay is described as follows: pull-down.
The target of assay [2] is Purified recombinant viral NP protein (influenza virus A/Puerto Rico/8/34 …, UniProt P03466 1-498). The assay is described as follows: pull-down.
Chain of Purified recombinant viral NP protein (P03466 whole entry): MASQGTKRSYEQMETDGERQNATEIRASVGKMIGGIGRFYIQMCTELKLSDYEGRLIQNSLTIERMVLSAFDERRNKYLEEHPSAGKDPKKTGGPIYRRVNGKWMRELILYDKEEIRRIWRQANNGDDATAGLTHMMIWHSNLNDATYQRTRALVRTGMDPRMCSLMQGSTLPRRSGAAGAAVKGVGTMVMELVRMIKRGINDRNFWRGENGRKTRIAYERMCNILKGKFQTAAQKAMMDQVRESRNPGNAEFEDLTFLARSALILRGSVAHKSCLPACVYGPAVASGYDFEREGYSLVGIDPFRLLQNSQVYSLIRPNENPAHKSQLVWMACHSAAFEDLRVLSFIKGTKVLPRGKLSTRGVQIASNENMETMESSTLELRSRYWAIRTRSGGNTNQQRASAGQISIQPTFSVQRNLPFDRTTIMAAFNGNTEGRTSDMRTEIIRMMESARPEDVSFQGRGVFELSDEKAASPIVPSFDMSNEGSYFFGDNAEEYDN

B1: GST-fused full length Suv4-20h2 (enzyme)
chain: not shown
As for B1, the binding result in assay [1] and in assay [2] was “binds” throughout.
